Source: article PMC7884431

Assays:
[1] = test system: RFL79 (Rf1) (Triticum aestivum (accession R197 for the cloned gene; source of the REMSA construct not stated)); assay: EMSA; conditions: apparent Kd; protein mostly aggregated; 1 nM probe; Binding buffer 1x THE (34 mM Tris, 66 mM HEPES, 0.1 mM EDTA, pH 8), 0.2 M NaCl, 5 mM DTT, 5 mg/mL heparin, 0.1 mg/mL BSA, RNaseOUT (10 uL) + 5 uL protein in …
[2] = test system: RFL29a (Rf3) (Triticum aestivum (accession R0934F for the cloned gene; source of the REMSA construct not stated)); assay: EMSA; conditions: apparent Kd; protein mostly aggregated; 1 nM probe; Binding buffer 1x THE (34 mM Tris, 66 mM HEPES, 0.1 mM EDTA, pH 8), 0.2 M NaCl, 5 mM DTT, 5 mg/mL heparin, 0.1 mg/mL BSA, RNaseOUT (10 uL) + 5 uL protein in …

| Sequence | Kd [1] [µM] | Kd [2] [µM] |
| --- | --- | --- |
| CUGUAAAUCAAGAAUUCCUCGAAGA [BS RFL79 (orf279)] | 1 | – |
| CUUCACCUGUGCACUUAUUUAUGUAU [BS RFL29a (orf279)] | – | 1 |
